# Experimental data: patent US20140051120A1 (Genentech, published 2014)
# Positions count from the first letter of the chain named.
# T1: p5 peptide of EGFL7 (human)
# T1 construct: also called Peptide P5
# T1 peptide: RACSTYRTIYRTA
# T2: mouse EGFL7 (mEGFL7-CB-His) (mouse, UniProt Q9QXT5 22-275)
# T2 sequence: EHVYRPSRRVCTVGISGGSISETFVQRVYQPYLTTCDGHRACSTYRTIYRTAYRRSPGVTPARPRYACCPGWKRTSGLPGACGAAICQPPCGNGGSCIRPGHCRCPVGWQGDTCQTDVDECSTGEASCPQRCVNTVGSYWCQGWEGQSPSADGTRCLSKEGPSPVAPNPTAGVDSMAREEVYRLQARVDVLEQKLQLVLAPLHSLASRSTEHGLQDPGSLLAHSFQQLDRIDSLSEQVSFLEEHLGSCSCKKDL
# B1: 18F7.v3 IgG (antibody, name in Kabat numbering, V domains shown)
# VH: EVQLVESGGGLVQPGGSLRLSCAASGYTFIDYYMNWVRQAPGKGLEWVGDINLDNGGTHYNQKFKGRFTISRDKSKNTAYLQMNSLRAEDTAVYYCAREGVYHDYDDYAMDYWGQGTLVTVSS
# VL: DIQMTQSPSSLSASVGDRVTITCRTSQSLVHINGITYLHWYQQKPGKAPKLLIYRVSNRFSGVPSRFSGSGSGTDFTLTISSLQPEDFATYYCSQSTHVPLTFGQGTKVEIKR
# notes: IgG; Kabat numbering; also called 18F7-KA
# B2: 18F7.v1 IgG (18F7-graft) (antibody, V domains shown)
# VH: B1 VH with K74N, A79L
# VL: B1 VL
# notes: Expressed as IgG
# B3: 18F7.v2 IgG (antibody, name in Kabat numbering, V domains shown)
# VH: B1 VH with A79L
# VL: B1 VL
# notes: IgG; Kabat numbering; also called 18F7-K
# B4: 18F7.v4 IgG (antibody, name in Kabat numbering, V domains shown)
# VH: B1 VH with A79V
# VL: B1 VL
# notes: IgG; Kabat numbering; also called 18F7-KV
# B5: 18F7.v5 IgG (antibody, V domains shown)
# VH: B1 VH
# VL: DIQMTQSPSSLSASVGDRVTITCRTSQSLVHINGITYLHWYQQKPGKAPKLLIYRVSNRGSGVPSRFSGSGSGTDFTLTISSLQPEDFATYYCSQSTHVPLTFGQGTKVEIK
# notes: IgG; Kabat numbering
# B6: 18F7.v6E IgG (antibody, V domains shown)
# VH: B1 VH with G56S
# VL: B5 VL with N33S, G60F, S94G
# notes: IgG; Variant of 18F7.v6
# B7: 18F7.v6I IgG (antibody, V domains shown)
# VH: B1 VH with G56S
# VL: B5 VL with N33Q, G60F, S94G
# notes: IgG; Variant of 18F7.v6
# B8: 18F7.v6J IgG (antibody, V domains shown)
# VH: B1 VH with G56S
# VL: B5 VL with G34S, G60F, S94G
# notes: IgG; Variant of 18F7.v6
# B9: 18F7.v7 IgG (antibody, V domains shown)
# VH: B1 VH
# VL: B5 VL with G60F, S94A
# notes: IgG; Kabat numbering
# B10: 18F7.v8 IgG (antibody, V domains shown)
# VH: B1 VH
# VL: B5 VL with G60F, S94V
# notes: IgG; Kabat numbering
# B11: 18F7.v9 IgG (antibody, V domains shown)
# VH: B1 VH with Y32K
# VL: B5 VL with G60F
# notes: IgG; Kabat numbering
# Molecular target: T1, p5 peptide of EGFL7
# Assay: SPR (Biacore), IgG over immobilized P5 peptide at 37 C;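 note: IgG variants injected at 0.5–1000 nM (2-fold series), 3 min association and 3.5 min dissociation, reference flow cell subtracted, kinetics fitted with a 1:1 Langmuir model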
Binder,Kd,koff,kon
B1,4.22 nM,0.000858 s⁻¹,203000 M⁻¹ s⁻¹
B2,6.3 nM,0.002 s⁻¹,317000 M⁻¹ s⁻¹
B3,2.59 nM,0.00119 s⁻¹,458000 M⁻¹ s⁻¹
B4,7.27 nM,0.00132 s⁻¹,182000 M⁻¹ s⁻¹
B5,2.7 nM,0.000892 s⁻¹,330000 M⁻¹ s⁻¹
B6,5.1 nM,0.00154 s⁻¹,303000 M⁻¹ s⁻¹
B7,16.7 nM,0.00316 s⁻¹,190000 M⁻¹ s⁻¹
B8,5.6 nM,0.000607 s⁻¹,108000 M⁻¹ s⁻¹
B9,2.87 nM,0.000718 s⁻¹,251000 M⁻¹ s⁻¹
B10,2.16 nM,0.00102 s⁻¹,472000 M⁻¹ s⁻¹
B11,3.35 nM,0.000763 s⁻¹,228000 M⁻¹ s⁻¹

# Molecular target: T2, mouse EGFL7 (mEGFL7-CB-His)
# Assay: SPR (Biacore), IgG over immobilized mEGFL7-CB at 37 C;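 note: IgG injected as twofold series from 0.5 to 1000 nM, 3 min association and 3.5 min dissociation, reference flow cell subtracted, kinetics fitted to 1:1 Langmuir model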
# Procedure: Affinity determinations were performed by surface plasmon resonance using a BIAcore™-2000. Truncated EGFL7 or p5 peptide was immobilized (approximately 50-200 RU) in 10 mM sodium acetate pH 4.8 on a CMS sensor chip. Purified IgG variants were injected (using a 2-fold serial dilution of 0.5 to 1000 nM in PBST) at a flow rate of 30 μL/min. Each sample was analyzed with 3-minute association and 3.5-minute disassociation. After each injection the chip was regenerated using 10 mM glycine pH 1.7.
# Binding response was corrected by subtracting a control flow cell from IgG variant flow cells. A 1:1 Languir model of simultaneous fitting of kₒₙ and koff was used for kinetics analysis.
Binder,Kd,koff,kon
B1,1.64 nM,9.05e-05 s⁻¹,55000 M⁻¹ s⁻¹
B2,2.82 nM,0.000274 s⁻¹,97000 M⁻¹ s⁻¹
B3,1.81 nM,0.000198 s⁻¹,110000 M⁻¹ s⁻¹
B4,4.15 nM,0.000208 s⁻¹,50000 M⁻¹ s⁻¹
B5,1.61 nM,0.000117 s⁻¹,73000 M⁻¹ s⁻¹
B6,9.9 nM,0.000474 s⁻¹,48000 M⁻¹ s⁻¹
B7,21.3 nM,0.000488 s⁻¹,23000 M⁻¹ s⁻¹
B8,0.8 nM,1.64e-05 s⁻¹,21000 M⁻¹ s⁻¹
B9,1.38 nM,9.58e-05 s⁻¹,70000 M⁻¹ s⁻¹
B10,2.04 nM,0.000199 s⁻¹,98000 M⁻¹ s⁻¹
B11,1.58 nM,9.32e-05 s⁻¹,59000 M⁻¹ s⁻¹
